Target: nucleosome core particle with 167 bp '601' DNA (167NCP)

Substance: ALC1 (1-673) D381A mutant (from UniProt Q86WJ1 1-673) (domain or fragment)
- Km of nucleosome remodeling (enzyme 10-640 nM), against ALC1 (1-673): 2 fold

From PMC8249414
